Square brackets hold non-standard residues; d marks the D form. Ends that are not written are not given here. Hyp = O=C(O)[C@@H]1C[C@@H](O)CN1
Columns and labels:
[1] = target: T1, SERK1 (SOMATIC EMBRYOGENESIS RECEPTOR KINASE 1) ectodomain (Arabidopsis, UniProt Q94AG2 24-213); assay: crystal structure; HSL1-CLE9-SERK1, mixed 1:1:1.5; 0.2 M K/Na tartrate, 20% PEG 3350; 2.87 Å; settings: both partners purified
T1 construct: SERK1 ectodomain, Arabidopsis, residues 24-213, AT1G71830; codon optimised; secreted with an azurocidin or Drosophila BiP signal peptide; also called co-receptor SERK1; source: Trichoplusia ni Tnao38 cells (baculovirus), secreted, purified (Ni2+, Strep-Tactin, TEV cleavage, second Ni2+, SEC)
T1 sequence (looked up): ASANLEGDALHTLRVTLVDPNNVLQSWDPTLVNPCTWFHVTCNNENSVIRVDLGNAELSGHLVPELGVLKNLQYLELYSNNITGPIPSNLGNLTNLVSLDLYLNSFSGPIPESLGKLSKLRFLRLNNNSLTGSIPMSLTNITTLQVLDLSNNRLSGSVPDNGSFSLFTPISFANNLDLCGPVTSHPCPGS

[2] = target: T2, BAM1 (BARELY ANY MERISTEM 1) ectodomain (Arabidopsis, UniProt O49545 20-637); assay: ITC; peptide (75 to 600 µM) injected into 10 to 30 µM HSL1 or BAM1 ectodomain in the cell; 25 °C; 20 mM sodium citrate pH 5.0, 150 mM NaCl; N fitted to 1; settings: both partners purified
T2 construct: BAM1 LRR receptor kinase ectodomain, Arabidopsis, residues 20-637, AT5G65700; codon optimised; secreted with an azurocidin or Drosophila BiP signal peptide; also called BAM1 extracellular domain; BAM1 LRR ectodomain; source: Trichoplusia ni Tnao38 cells (baculovirus), secreted, purified (Ni2+, Strep-Tactin, TEV cleavage, second Ni2+, SEC)
T2 sequence (looked up): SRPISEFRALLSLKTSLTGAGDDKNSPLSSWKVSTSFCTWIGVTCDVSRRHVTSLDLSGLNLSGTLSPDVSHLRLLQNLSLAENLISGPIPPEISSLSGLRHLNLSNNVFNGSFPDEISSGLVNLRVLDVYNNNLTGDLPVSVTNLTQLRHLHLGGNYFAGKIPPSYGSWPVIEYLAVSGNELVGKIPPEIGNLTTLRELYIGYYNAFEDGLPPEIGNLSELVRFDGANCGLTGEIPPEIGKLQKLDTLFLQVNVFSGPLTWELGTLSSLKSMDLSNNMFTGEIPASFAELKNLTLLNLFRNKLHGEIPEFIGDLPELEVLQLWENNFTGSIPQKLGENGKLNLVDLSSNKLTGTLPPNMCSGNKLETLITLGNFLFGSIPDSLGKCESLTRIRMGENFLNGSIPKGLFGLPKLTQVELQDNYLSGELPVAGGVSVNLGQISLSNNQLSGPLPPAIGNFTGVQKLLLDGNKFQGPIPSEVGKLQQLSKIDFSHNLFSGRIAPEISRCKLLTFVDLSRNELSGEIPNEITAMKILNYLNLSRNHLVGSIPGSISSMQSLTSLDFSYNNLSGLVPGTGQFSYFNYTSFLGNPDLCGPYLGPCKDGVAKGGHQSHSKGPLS

[3] = target: T3, HSL1 (HAESA-LIKE 1) ectodomain (Arabidopsis, UniProt Q9SGP2 17-618); assay: ITC
T3 chain: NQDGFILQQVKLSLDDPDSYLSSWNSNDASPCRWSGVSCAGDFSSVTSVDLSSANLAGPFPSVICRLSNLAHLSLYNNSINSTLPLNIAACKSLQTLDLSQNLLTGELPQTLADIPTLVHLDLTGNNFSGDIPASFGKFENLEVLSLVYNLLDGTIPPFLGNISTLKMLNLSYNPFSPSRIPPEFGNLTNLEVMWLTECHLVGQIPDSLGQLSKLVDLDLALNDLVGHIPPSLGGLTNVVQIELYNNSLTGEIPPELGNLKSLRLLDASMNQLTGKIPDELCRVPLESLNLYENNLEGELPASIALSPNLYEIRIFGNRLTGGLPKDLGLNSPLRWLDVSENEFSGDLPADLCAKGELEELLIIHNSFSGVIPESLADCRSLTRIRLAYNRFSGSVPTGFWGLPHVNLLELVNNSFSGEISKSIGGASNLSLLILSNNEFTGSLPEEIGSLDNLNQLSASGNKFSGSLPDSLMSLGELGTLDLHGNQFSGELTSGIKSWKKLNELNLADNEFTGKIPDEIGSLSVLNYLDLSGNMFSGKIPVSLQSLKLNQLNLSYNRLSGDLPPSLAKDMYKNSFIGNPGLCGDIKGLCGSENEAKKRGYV

[4] = target: T4, HSL1 (HAESA-LIKE 1) ectodomain (Arabidopsis, UniProt Q9SGP2 17-618); assay: ITC; peptide (75 to 600 µM) injected into 10 to 30 µM HSL1 or BAM1 ectodomain in the cell; 25 °C; 20 mM sodium citrate pH 5.0, 150 mM NaCl; N fitted to 1; settings: both partners purified
T4 construct: HSL1 LRR receptor kinase ectodomain, Arabidopsis, residues 17-618, AT1G28440; codon optimised; secreted with an azurocidin or Drosophila BiP signal peptide; also called isolated HSL1 ectodomain; LRR-RK HSL1; source: Trichoplusia ni Tnao38 cells (baculovirus), secreted, purified (Ni2+, Strep-Tactin, TEV cleavage, second Ni2+, SEC)
T4 sequence (looked up): T3 chain

[5] = target: T3, HSL1 (HAESA-LIKE 1) ectodomain; assay: ITC; with IDA
[6] = target: T3, HSL1 (HAESA-LIKE 1) ectodomain; assay: ITC; with IDL1
[7] = target: T3, HSL1 (HAESA-LIKE 1) ectodomain; assay: ITC; with IDL2
[8] = target: T3, HSL1 (HAESA-LIKE 1) ectodomain; assay: ITC; with IDL3
[9] = target: T3, HSL1 (HAESA-LIKE 1) ectodomain; assay: ITC; with IDL4
[10] = target: T5, biotinylated HSL1 ectodomain with Avi-tag (Arabidopsis, UniProt Q9SGP2 17-618, biotin on the Avi-tag (BirA)); assay: GCI, with IDA
T5 chain: T3 chain

[11] = target: T3, HSL1 (HAESA-LIKE 1) ectodomain; assay: ITC; with CLE9^N116S
[12] = target: T5, biotinylated HSL1 ectodomain with …; assay: GCI, with IDL1
[13] = target: T5, biotinylated HSL1 ectodomain with …; assay: GCI, with IDL2
[14] = target: T5, biotinylated HSL1 ectodomain with …; assay: GCI, with IDL3
[15] = target: T5, biotinylated HSL1 ectodomain with …; assay: GCI, with IDL4
[16] = target: T5, biotinylated HSL1 ectodomain with …; assay: GCI, with IDL1
[17] = target: T5, biotinylated HSL1 ectodomain with …; assay: GCI, with IDL3
[18] = target: T5, biotinylated HSL1 ectodomain with …; assay: in presence of IDL1
[19] = target: T5, biotinylated HSL1 ectodomain with …; assay: in presence of IDL2
[20] = target: T5, biotinylated HSL1 ectodomain with …; assay: in presence of IDL3
[21] = target: T5, biotinylated HSL1 ectodomain with …; assay: in presence of IDL4
[22] = target: T5, biotinylated HSL1 ectodomain with …; assay: in presence of IDL1
[23] = target: T5, biotinylated HSL1 ectodomain with …; assay: in presence of IDL2
[24] = target: T5, biotinylated HSL1 ectodomain with …; assay: in presence of IDL3
[25] = target: T5, biotinylated HSL1 ectodomain with …; assay: in presence of IDL4

B1: CLE9 mature peptide (peptide, UniProt Q9FZE4 109-120, looked up)
peptide: RLV[Hyp]SG[Hyp]NPLHN
notes: CLE9 mature dodecapeptide, AT1G26600; printed residues R109, L110, V111, Hyp112, Ser113, Hyp115, Asn116; also called wild-type CLE9 peptide
B1 was tested, and the binding result [1] was “binds” and the Kd [2] was 100 nM.

B2: CLE9^N116S peptide (peptide, UniProt Q9FZE4 109-120, looked up)
peptide: RLVPSGPSPLHN
notes: CLE9 mature dodecapeptide with Asn116 changed to Ser; also called Asn116^CLE9 to a Ser
B2 was tested, and the Kd [3] was 7150 nM and the binding result [4] was “binds”.

B3: SERK1 (SOMATIC EMBRYOGENESIS RECEPTOR KINASE 1) ectodomain (domain or fragment)
chain: T1 sequence (looked up)
B3 gave a Kd [5] of 22 nM, a Kd [6] of 44 nM and a Kd [7] of 16 nM. The Kd [8] was 26 nM, the Kd [9] was 49 nM and the Kd [10] was 9 nM. The Kd [11] was 170 nM, the Kd [12] was 12.5 nM and the Kd [13] was 9 nM. For the same binder, the Kd [14] was 1 nM, the Kd [15] was 12.5 nM and the koff [16] was 0.00018 s⁻¹. The koff [17] was 3e-05 s⁻¹, the koff [18] was 0.00018 s⁻¹ and the koff [19] was 0.00011 s⁻¹. For the same binder, the koff [20] was 0.00026 s⁻¹, the koff [21] was 0.00013 s⁻¹ and the Kd [22] was 12.5 nM. The Kd [23] was 1.5 nM, the Kd [24] was 8.5 nM and the Kd [25] was 10.7 nM.

Reference: publication PMC8847575, “HSL1 and BAM1/2 impact epidermal cell development by sensing distinct signaling peptides” (Nature Communications, 2022)
